This experiment deals with T1, Recombinant human TNFα (Homo sapiens, UniProt P01375).
T1 construct: human TNFα, residues 77-233 of GenBank AAA61198.1, behind an N-terminal signal peptide and 6x His tag; also called hTNFα; TFNα; source: Expi293, transient transfection, purified (Ni-NTA)
Nature of the experiment: ELISA; 100-200 ng/well antigen coated in PBS, sdAbs added in 3-fold serial dilutions, 1.5 h at 37 °C, detected with HRP anti-flag antibody. Particulars: both partners purified.

The record followed here is PMC12572175, “A synergistic generative-ranking framework for tailored design of therapeutic single-domain antibodies” (Cell Discovery, 2025).

Positions count from the first letter of the chain named. Names and notes keep the numbering of the source.

T1 sequence (P01375 77-233): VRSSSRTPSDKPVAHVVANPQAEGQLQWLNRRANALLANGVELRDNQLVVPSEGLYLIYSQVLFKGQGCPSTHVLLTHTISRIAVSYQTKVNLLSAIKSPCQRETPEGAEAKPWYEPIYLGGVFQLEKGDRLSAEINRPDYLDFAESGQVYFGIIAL

B1: VHH3-M1 (VHH)
VHH: QVQLQDSGGGLVQAGGSLRLSCAVSGRTFSAHSVYTMGWFRQAPGKEREFVARIYWSSANTYYADSVKGRFTISRDNAKNTVDLQMNSLRPEDTAVYYCAARDGIPTSRTVGSYNYWGQGTQVTVSS
notes: redesigned variant of VHH3 (carries L90Q, IMGT numbering); Designed by TFDesign-sdAb; pComb3x with N-terminal OmpA signal peptide; also called VHH-M1; source: E. coli HB2151, purified (Ni-NTA or Protein A resin); also in lysis supernatant; not shown: FLAG, C-terminal, kept
On to B1, for which the binding result is given as “binds”.

B2: VHH3-M3 (VHH)
VHH: B1 VHH with D83Y
notes: redesigned variant of VHH3 (carries L90Q; differs from VHH3-M1 only at position 88, IMGT numbering); Designed by TFDesign-sdAb; pComb3x with N-terminal OmpA signal peptide; also called VHH-M3; source: E. coli HB2151, purified (Ni-NTA or Protein A resin); also in lysis supernatant; not shown: FLAG, C-terminal, kept
For B2, the binding result is “binds”.
